T1: periplasmic domain of the EAEC TssM protein (enteroaggregative Escherichia coli …)
T1 construct: TssM of enteroaggregative Escherichia coli (EAEC), a 1129-amino-acid inner membrane protein; periplasmic domain, amino-acids 386-1129; also called TssM periplasmic domain; source: recombinant, produced and purified as described previously [11]
T1 chain: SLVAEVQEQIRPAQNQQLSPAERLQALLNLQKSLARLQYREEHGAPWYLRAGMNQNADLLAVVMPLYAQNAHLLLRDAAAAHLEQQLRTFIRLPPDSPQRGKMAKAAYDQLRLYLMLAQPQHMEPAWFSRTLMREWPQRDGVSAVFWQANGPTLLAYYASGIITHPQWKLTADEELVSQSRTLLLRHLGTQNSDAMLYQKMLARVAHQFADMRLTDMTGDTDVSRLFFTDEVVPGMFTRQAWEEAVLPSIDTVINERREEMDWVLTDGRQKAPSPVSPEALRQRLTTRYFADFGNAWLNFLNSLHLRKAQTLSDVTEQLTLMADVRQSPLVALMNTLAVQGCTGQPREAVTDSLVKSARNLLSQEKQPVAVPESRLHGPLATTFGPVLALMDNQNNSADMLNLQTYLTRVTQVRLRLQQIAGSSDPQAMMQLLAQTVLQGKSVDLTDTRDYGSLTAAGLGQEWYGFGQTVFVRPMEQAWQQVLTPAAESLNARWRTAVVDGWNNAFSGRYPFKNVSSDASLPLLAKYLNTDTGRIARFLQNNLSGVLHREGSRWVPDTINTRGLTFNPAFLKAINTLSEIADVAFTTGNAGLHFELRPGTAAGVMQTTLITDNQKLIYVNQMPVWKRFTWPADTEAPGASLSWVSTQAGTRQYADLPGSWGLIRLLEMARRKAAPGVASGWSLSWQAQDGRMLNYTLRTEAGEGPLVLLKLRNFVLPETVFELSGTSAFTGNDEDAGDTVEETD

B1: anti-TssM nanobody nb02 (VHH)
VHH: DVQLVESGGGLVHPGGSLRLSCAASGRTFSDYALGWFRQAPGKDREFVAAISWSGGSTYYADSVQGRFTISRDNDKNSVYLQMNSLKPEDTAVYYCAADKYYTGPGGESVYDYWGRGTQVTVSS
notes: llama VHH raised against TssMp; CDR3 of 14 residues; source: E. coli WK6 periplasm (pHEN6, pelB signal peptide), purified (Ni-NTA, Superdex 75)
B2: anti-TssM nanobody nb25 (VHH)
VHH: QVQLVESGGGLVQAGGSLRLSCAASGFTFEDYAIGWFRQAPGKEREGVSCISNLDGSTYYPDSVKGRFTASSDKAKNMVYLQMNSLKPEDTAVYYCAAVNAQGIYCTDYIIGPYGMDYWGKGTQVTVSS
notes: llama VHH raised against TssMp; CDR3 of 19 residues, disulfide bridge between Cys-106 and CDR2 Cys-50; source: E. coli WK6 periplasm (pHEN6, pelB signal peptide), purified (Ni-NTA, Superdex 75)
B3: anti-TssM nanobody nb42 (VHH)
VHH: DVQLVESGGGLVQAGGSLRLSCAASGFTFGDYAIGWFRQAPGKEREGVSCFSNSDGSTYYADSVKGRFTSSSDNAKNTQYLQMNSLKPEDTAIYYCAAVKAQGIYCTEYIIGPYGMDYWGKGTLVTVSS
notes: very similar to nb25, CDR3 identical to that of nb25; No structure was solved for nb42; also called nb25 variant nb42; source: E. coli WK6 periplasm (pHEN6, pelB signal peptide), purified (Ni-NTA, Superdex 75)

Target: T1, periplasmic domain of the EAEC TssM …
Assay: SPR; nanobodies covalently linked to a CM5 chip, TssMp injected (1.95 to 250 nM); Biacore X100; multi-cycle kinetics; regeneration with glycine-HCl pH 2.5; apparent KDs
Settings: both partners purified

Binder	Kd	koff	kon
B1	66.8 ± 2.5 nM	0.0402 s⁻¹	602000 M⁻¹ s⁻¹
B2	1.61 ± 0.05 nM	0.00056 s⁻¹	350000 M⁻¹ s⁻¹
B3	1.76 ± 0.08 nM	0.00036 s⁻¹	204000 M⁻¹ s⁻¹

From article PMC4374921, “Inhibition of Type VI Secretion by an Anti-TssM Llama Nanobody” (PLoS ONE, 2015)
